Among the data in the supplement of paper PMC10567573 are protein stability index values, retold here.

Sequences and labels used below:
B1: CDC25B (parent)
chain: KSPIAPCSLDKRVILIFHCEFSSE
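Also: lentivirally expressed fusions sorted by FACS into six bins by GFP to DsRed ratio, PSI derived from sequencing read proportions per bin multiplied by bin number.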

Variants of B1 are the subject of the series. The series can be described thus: protein stability index of a GFP-peptide fusion (GPS, HEK-293T) (PSI 1-6); higher = more stable. As to conditions: c terminus: a fixed tail appended.
Consider KSPIAPCSLDKRVIYIFHCEFSSE, for which the protein stability index is 2.66.

As for KSPIAPCSLDKRVINIFHCEFSSE, the protein stability index turned out to be 2.21.

Turning to KSPIAPCSLDKRVIDIFHCEFSSE, the protein stability index was 2.38.

As to KSPIAPCSLDKRVIRIFHCEFSSE, the protein stability index came to 1.71.

In the case of KSPIAPCSLDKRVISIFHCEFSSE, the protein stability index amounted to 1.86.

KSPIAPCSLDKRVIMIFHCEFSSE: the protein stability index worked out at 2.88.

For KSPIAPCSLDKRVIGIFHCEFSSE, the protein stability index stood at 1.39.

For the variant KSPIAPCSLDKRVIPIFHCEFSSE, the protein stability index came out at 2.28.

As for KSPIAPCSLDKRVIHIFHCEFSSE, the protein stability index was found to be 1.05.

As for KSPIAPCSLDKRVIFIFHCEFSSE, the protein stability index turned out to be 2.88.

For KSPIAPCSLDKRVIQIFHCEFSSE, the protein stability index came to 1.84.

Take KSPIAPCSLDKRVIAIFHCEFSSE: the protein stability index was 2.68.

With KSPIAPCSLDKRVIKIFHCEFSSE, the protein stability index came out at 1.42.

As to KSPIAPCSLDKRVIEIFHCEFSSE, the protein stability index came out at 1.83.

As for KSPIAPCSLDKRVILIFHCEFTSE, the protein stability index was found to be 2.88.

Take KSPIAPCSLDKRVILIFHCEFISE: the protein stability index worked out at 1.34.

Take KSPIAPCSLDKRVILIFHCEFYSE: the protein stability index came out at 2.31.

As to KSPIAPCSLDKRVILIFHCEFKSE, the protein stability index amounted to 2.08.

Regarding KSPIAPCSLDKRVILIFHCEFHSE, the protein stability index came out at 2.09.

Regarding KSPIAPCSLDKRVILIFHCEFPSE, the protein stability index worked out at 2.1.

Regarding KSPIAPCSLDKRVILIFHCEFMSE, the protein stability index was 2.66.

As to KSPIAPCSLDKRVILIFHCEFFSE, the protein stability index was 2.21.

With KSPIAPCSLDKRVILIFHCEFQSE, the protein stability index came out at 2.5.

Regarding KSPIAPCSLDKRVILIFHCEFDSE, the protein stability index was 3.4.

In the case of KSPIAPCSLDKRVILIFHCEFASE, the protein stability index stood at 3.41.

As for KSPIAPCSLDKRVILIFHCEFWSE, the protein stability index amounted to 4.72.

KSPIAPCSLDKRVILIFHCEFCSE: the protein stability index is 1.43.

Turning to KSPIAPCSLDKRPILIFHCEFSSE, the protein stability index came to 1.49.

For the variant KSPIAPCSLDKRWILIFHCEFSSE, the protein stability index came out at 4.17.

Turning to KSPIAPCSLDKRKILIFHCEFSSE, the protein stability index turned out to be 1.32.

Consider KSPIAPCSLDKRYILIFHCEFSSE, for which the protein stability index was found to be 2.97.

As for KSPIAPCSLDKRHILIFHCEFSSE, the protein stability index stood at 1.85.

For KSPIAPCSLDKRSILIFHCEFSSE, the protein stability index was 3.15.

On to KSPIAPCSLDKRQILIFHCEFSSE, for which the protein stability index came out at 1.42.

With KSPIAPCSLDKRNILIFHCEFSSE, the protein stability index amounted to 1.61.

As to KSPIAPCSLDKRRILIFHCEFSSE, the protein stability index came to 3.12.

Consider KSPIAPCSLDKRIILIFHCEFSSE, for which the protein stability index is 3.36.

With KSPIAPCSLDKRGILIFHCEFSSE, the protein stability index turned out to be 1.14.

Consider KSPIAPCSLDKRTILIFHCEFSSE, for which the protein stability index was 2.89.

For KSPIAPCSLDKRLILIFHCEFSSE, the protein stability index is 2.5.

As for KSPIAPCSLDKRVILIFHCEFSSK, the protein stability index stood at 3.12.

For the variant KSPIAPCSLDKRVILIFHCEFSSG, the protein stability index turned out to be 2.09.

As for KSPIAPCSLDKRVILIFHCEFSSD, the protein stability index stood at 2.77.

Regarding KSPIAPCSLDKRVILIFHCEFSSY, the protein stability index stood at 2.39.

Turning to KSPIAPCSLDKRVILIFHCEFSSQ, the protein stability index came out at 2.38.

In the case of KSPIAPCSLDKRVILIFHCEFSSL, the protein stability index was determined as 1.98.

Turning to KSPIAPCSLDKRVILIFHCEFSSV, the protein stability index was 2.98.

Turning to KSPIAPCSLDKRVILIFHCEFSST, the protein stability index amounted to 2.44.

As to KSPIAPCSLDKRVILIFHCEFSVE, the protein stability index worked out at 2.95.

As for KSPIAPCSLDKRVILIFHCEFSTE, the protein stability index turned out to be 2.89.

As to KSPIAPCSLDKRVILIFHCEFSEE, the protein stability index stood at 1.73.

Regarding KSPIAPCSLDKRVILIFHCEFSWE, the protein stability index is 3.34.

Turning to KSPIAPCSLDKRVILIFHCEFSFE, the protein stability index came to 4.12.

On to KSPIAPCSLDKRVILIFHCEFSIE, for which the protein stability index was found to be 2.64.

Take KSPIAPCSLDKRVILIFHCEFSQE: the protein stability index was 2.79.

Regarding KSPIAPCSLDKRVILIFHCEFSNE, the protein stability index turned out to be 2.25.

Turning to KSPIAPCSLDKRVILIFHCEFSME, the protein stability index turned out to be 2.11.

KSPIAPCSLDKRVILIFHCEFSAE: the protein stability index worked out at 4.14.

For the variant KSPIAPCSLDKRVILIFHCEFSLE, the protein stability index turned out to be 2.04.

As for KSPIAPCSLDKRVILIFHCEFSCE, the protein stability index came to 1.23.

Consider KSPIAPCSLDKRVILLFHCEFSSE, for which the protein stability index was 1.38.

Consider KSPIAPCSLDKRVILCFHCEFSSE, for which the protein stability index worked out at 2.93.

Turning to KSPIAPCSLDKRVILSFHCEFSSE, the protein stability index was 2.01.

Regarding KSPIAPCSLDKRVILGFHCEFSSE, the protein stability index is 1.4.

With KSPIAPCSLDKRVILPFHCEFSSE, the protein stability index came to 3.02.

On to KSPIAPCSLDKRVILWFHCEFSSE, for which the protein stability index came out at 1.05.

As to KSPIAPCSLDKRVILRFHCEFSSE, the protein stability index was found to be 2.5.

As for KSPIAPCSLDKRVILMFHCEFSSE, the protein stability index is 2.25.

With KSPIAPCSLDKRVILTFHCEFSSE, the protein stability index was 2.18.

As for KSPIAPCSLDKRVILDFHCEFSSE, the protein stability index worked out at 2.92.

For KSPIAPCSLDKRVILKFHCEFSSE, the protein stability index worked out at 1.39.

Regarding KSPIAPCSLDKRVILVFHCEFSSE, the protein stability index came out at 1.06.

As for KSPIAPCSLDKRVILYFHCEFSSE, the protein stability index amounted to 2.91.

On to KSPIAPCSLDKRVILAFHCEFSSE, for which the protein stability index came out at 1.52.

For the variant KSPIAPCSLDKRVILEFHCEFSSE, the protein stability index is 1.07.

On to KSPIAPCSLDKRVILQFHCEFSSE, for which the protein stability index was determined as 1.52.

For the variant KSPIAPCSLDKRVILHFHCEFSSE, the protein stability index stood at 1.68.

Consider KSPIAPCSLDKRVILNFHCEFSSE, for which the protein stability index is 2.54.

As for KSPIAPCSLDKRVILINHCEFSSE, the protein stability index was 2.54.

Take KSPIAPCSLDKRVILICHCEFSSE: the protein stability index was determined as 2.19.

KSPIAPCSLDKRVILIEHCEFSSE: the protein stability index was 2.76.

KSPIAPCSLDKRVILIGHCEFSSE: the protein stability index was determined as 1.39.

For the variant KSPIAPCSLDKRVILIDHCEFSSE, the protein stability index turned out to be 3.13.

Take KSPIAPCSLDKRVILIQHCEFSSE: the protein stability index was determined as 2.44.

For the variant KSPIAPCSLDKRVILIHHCEFSSE, the protein stability index was found to be 1.64.

For the variant KSPIAPCSLDKRVILISHCEFSSE, the protein stability index worked out at 1.8.

Regarding KSPIAPCSLDKRVILIRHCEFSSE, the protein stability index was determined as 1.69.

Turning to KSPIAPCSLDKRVILIAHCEFSSE, the protein stability index stood at 1.92.

With KSPIAPCSLDKRVILIKHCEFSSE, the protein stability index was 2.33.

Take KSPIAPCSLDKRVILITHCEFSSE: the protein stability index came out at 1.8.

Consider KSPIAPCSLDKRVILIMHCEFSSE, for which the protein stability index came to 1.66.

For the variant KSPIAPCSLDKRVILIIHCEFSSE, the protein stability index turned out to be 2.47.

KSPIAPCSLDKRVILIVHCEFSSE: the protein stability index came out at 4.17.

Consider KSPIAPCSLDKRVILIPHCEFSSE, for which the protein stability index worked out at 2.36.
